The target of assay [1] is T1, mouse CD80 recombinant protein (Mus musculus, UniProt Q00609).
T1 construct: Fc (Fc chimera); His-tag; purchased R&D Systems 740-B1
Description: Phage display screening and enzyme-linked immunosorbent assay screening for CD80 binding. The following applies: peptide derived from ELISA-positive phage colonies. The protocol: In ‘Phage Display Screening”, biopanning is applied via phage display technology. First, the G protein magnetic beads (product name: Dynabeads™ Protein G; manufacturer: Invitrogen) are added to mix with the phage peptide library (product name: PhD-12 Phage Display Peptide Library; manufacturer: New England Biolabs), thus the mixture is incubated for 1 hour at 4° C. ambient conditions. Then, a magnet is used to remove the G protein magnetic beads to exclude phages bound to the G protein magnetic beads in the phage peptide library, thereby obtaining a purified phage peptide library. Continuously, the bait carrier is added to the purified phage peptide library and incubated overnight at 4° C. ambient conditions. The bait carrier is magnetic beads immobilized with mouse CD80 recombinant protein (product name: Recombinant Mouse B7-1/CD80 Fc Chimera His-tag Protein, CF; manufacturer: R&D Systems; catalog number: 740-B1). Therefore, the phages in the purified phage peptide library that bind to the mouse CD80 recombinant protein will be bound to the bait carrier, and then the bait carrier will be separated using the magnet. Then the bait carrier is rinsed with cleaning solution to eliminate phages with weak binding force. The cleaning solution is phosphate buffered saline (PBS) containing 0.1% (v/v) polysorbate-20 (Tween 20). […]
For orientation: ELISA stands for enzyme-linked immunosorbent assay.

The target in assay [2] is T2, Recombinant Mouse B7-1/CD80 Fc Chimera His-tag Protein, CF (R&D Systems, catalog number 740-B1) (mouse, UniProt Q00609 38-245).
T2 construct: Bought reagent; everywhere else it is mouse; also called mouse CD80 recombinant protein; bait; Fc part of the bought chimera not given; His-tag
T2 sequence (looked up): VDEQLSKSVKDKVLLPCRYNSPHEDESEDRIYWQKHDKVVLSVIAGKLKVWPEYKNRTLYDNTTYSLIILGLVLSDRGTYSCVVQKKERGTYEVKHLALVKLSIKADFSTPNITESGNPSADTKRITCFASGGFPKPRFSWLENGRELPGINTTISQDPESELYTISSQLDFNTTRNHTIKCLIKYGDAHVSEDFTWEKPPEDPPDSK
Description: phage ELISA on plate-coated mouse CD80 recombinant protein, anti-M13 HRP, absorbance at 450 nm. The text has this: The PEG8000/NaCl contains 20% (v/v) PEG8000 (product name: Poly (ethylene glycol); manufacturer: Sigma-Aldrich; Cat. No.: P5413-1KG) and 2.5M NaCl (product name: Sodium chloride; manufacturer: Honeywell fluka; Cat. No.: 31434S-1KG). The above steps are repeated for five rounds in total. In the fourth and fifth rounds, phage clones will be randomly selected for culture, and used in the subsequent enzyme-linked immunosorbent assay (ELISA) to screen out desired phages.
In the “Enzyme Combined Immunosorbent Assay Screening”, the mouse CD80 recombinant protein is first fixed in the wells of a microplate (product name: Clear C-Shaped Immuno Nonsterile 96-Well Plates; manufacturer: Thermo Fisher Scientific; Cat. No.: 446612), and then the phage clones randomly selected in the fourth and fifth rounds of the “Phage Display Screening” are mixed with the diluent at a volume ratio of 1:2 to obtain a phage dilution, which is a phosphate buffered saline comprising 3% (v/v) bovine serum albumin (BSA) and 0.1% (v/v) polysorbate-20. […] Constantly, a microplate reader is adopted to measure the absorbance at 450 nm to confirm whether the phages in each grid of the microplate are still bound to the mouse CD80 recombinant protein in the microplate. […]

T1 sequence (Q00609 with tags, fused parts or gaps limits assumed): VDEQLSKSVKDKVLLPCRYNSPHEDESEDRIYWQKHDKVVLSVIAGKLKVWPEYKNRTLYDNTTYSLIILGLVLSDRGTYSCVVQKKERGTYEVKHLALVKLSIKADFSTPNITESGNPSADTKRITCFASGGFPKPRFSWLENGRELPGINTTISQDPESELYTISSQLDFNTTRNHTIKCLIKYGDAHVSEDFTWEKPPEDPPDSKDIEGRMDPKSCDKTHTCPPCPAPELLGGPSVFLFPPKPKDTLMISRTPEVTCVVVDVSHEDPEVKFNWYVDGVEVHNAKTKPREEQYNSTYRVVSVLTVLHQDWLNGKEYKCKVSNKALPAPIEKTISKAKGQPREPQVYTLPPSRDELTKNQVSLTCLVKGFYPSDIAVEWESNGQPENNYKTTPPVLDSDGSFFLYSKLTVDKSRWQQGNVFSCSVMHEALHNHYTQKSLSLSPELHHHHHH

On to “VLMGDPSVWWTY [first peptide, peptide from phage display screening against mouse CD80 recombinant protein]”, for which the “binding to CD80 protein” value in assay [1] is on record as “can indeed bind to the CD80 protein”.

B1: second peptide (YLIYEEEPLNSM) (peptide)
peptide: YLIYEEEPLNSM
notes: In the ELISA screening the peptide stood on an M13 phage clone from the PhD-12 Phage Display Peptide Library
Take B1: the binding result in assay [2] is given as “binds”.

B2: first peptide (VLMGDPSVWWTY) (peptide)
peptide: VLMGDPSVWWTY
notes: In the ELISA screening the peptide stood on an M13 phage clone from the PhD-12 Phage Display Peptide Library (New England Biolabs); also called novel peptide
Consider B2, for which, in assay [2], the binding result is recorded as “binds”.
